Assay results from patent publication US9744220B2, “Compositions and methods for treating inflammatory diseases” (priority 2013, dated 2017).

Legend:
IL1-Ra, TSG-6 and COX-2 = test: Intravenous sPDNF into naïve mice, anti-inflammatory factor transcripts in heart and liver; type: in vivo
Procedure: FIG. 2A is a graph showing stem cell marker expression in mice administered sPDNF. One set of three wild type C57BL/6 mice received intravenous (IV) PBS without (PBS) or with sPDNF (2 mg/kg) at 0, 3 and 24 hours (sPDNF 1d), and a second set IV sPDNF (2 mg/kg) for 6 days (sPDNF 6d). Mice were sacrificed 3 hr post injection and the indicated stem cells markers were quantified in the ventricles by real time PCR, and normalized to HPRT; *, p<0.05, **, p<0.001, ***, p<0.0001; SCF, stem cell factor, ns, not significant. FIG. 2B is a graph showing stem cell marker expression in MyD88^−/− mice administered sPDNF. TLR-deficient MyD88^−/− mice (C57BL/6 background) (2/group) were injected IV with a single dose of sPDNF (2 mg/kg), sacrificed at 3 hours post-injection, and the indicated cardiac stem cell markers assessed by qPCR. Data were normalized to HPRT and made relative to vehicle-treated controls (set at 1.0 and represented by the dashed line); **, P<0.01; and ***, P<0.005. FIG. 2C is a graph showing stem cell marker expression in mice administered sPDNF at various time points after injection. […] Cardiac Sca-1 and SCF transcripts were quantified by qPCR; **, P<0.001; ***, P<0.0005. FIG. 2D is a graph showing quantitation of Sca-1 expression in various organs of mice administered sPDNF. C57BL/6 mice (3 per group), average of two experiments) were injected IV with sPDNF at 4 mg/kg body weight or PBS, sacrificed 3 hours later, and Sca-1 mRNA quantified by qPCR in the liver, heart, colon and bone marrow (*, P<0.05, **, P<0.001; ns, not significant; dotted line represents Sca-1 mRNA of vehicle-treated mice set at 1.0, data are representative of 2 experiments. […] FIG. 2F is a graph showing quantitation of expression of inflammatory markers in mice administered sPDNF. Wild type and naïve mice (5 per group) were injected IV with a single dose of sPDNF (4 mg/kg), sacrificed 3 hr post-injection, and the L-1Ra, TSG-6, COX-2, and IDO transcripts quantified in the heart and liver. […]

H9c2 cardiomyocytes [1] = test: sPDNF stimulation of H9c2 cardiomyocytes, secretion by ELISA; type: cell-based, rat; conditions: H9c2, 3 hr
Procedure: (§1) FIG. 8A is a graph showing dose-response of MCP-1 secretion to sPDNF stimulation. H9c2 cardiomyocytes were plated in 6-well plates, grown in low serum (0.1% FCS) overnight, and stimulated with the indicated doses of sPDNF for 3 hr. Secretion of MCP-1, MIP-2α and IL-6 was determined by ELISA. FIG. 8B is a graph showing dose-response of MCP-transcript expression. H9c2 cardiomyocytes were plated in 6-well plates, grown in low serum (0.1%) overnight, and stimulated with the indicated doses of sPDNF for 3 hr, and MCP-transcript quantified by qPCR. Chemokine gene expression was normalized to HPRT and fold change calculated relative to vehicle-treated cells. Points represent mean±SD fold change expression of triplicate samples; *P<0.05, **P<0.01, and ***P<0.005. FIG. 8C is a graph showing time course of MCP-1 and FKN transcripts expression. H9c2 cardiomyocytes were plated in 6-well plates (triplicate), grown in low serum (0.1%) overnight, stimulated with sPDNF (1 μg/ml) for the indicated times, and MCP-1 and FKN (data not shown) transcripts quantified by qPCR. Three experiments gave similar results.
(§2) Primary cardiomyocytes and cardiac fibroblasts, and H9c2 cardiomyocytes were seeded at 6-8×10^4 cells per well in DMEM/10% FCS and allowed to adhere overnight, serum starved (DMEM/0.1% FCS overnight), and treated with sPDNF (0.5 ng/ml-8 μg/ml, 0-16 h). Cell supernatants were collected and stored at −80° C. and cell monolayers rinsed with PBS and collected in Trizol for qPCR analysis.
MCP-1: 96-well Maxisorp plates (Nunc) were coated overnight with relevant supernatants or MCP-1 standards (R&D Systems, 479-JE/CF) in coating buffer (50 mM NaHCO3/Na2CO3, pH 9.6, 0.02% NaN3), blocked in 5% BSA/PBST, reacted with a MCP-1 detection antibody (Santa Cruz, SC-28879; 1:200; 2 hr), and then alkaline-phosphatase (AP) conjugated secondary antibody (Sigma A3687; 1:1000; 1 hr). Between each step, plates were washed 2-4 times with PBST. […] MCP-1 concentrations were calculated relative to a 4-parametric standard curve using the SOFTmax Pro program. […]

H9c2 cardiomyocytes [2] = test: sPDNF stimulation of H9c2 cardiomyocytes, transcripts by qPCR; type: cell-based, rat
Procedure: as §1, §2
RNA was isolated from Trizol lysates of cell monolayers or liquid nitrogen snap frozen tissue samples dissociated by a Tissue-Tearor mechanical homogenizer (Biospec Products, Inc.). cDNA was synthesized using the Quantitect Reverse Transcription kit (Qiagen) according to manufacturer's instructions. Chemokine and chemokine receptor transcripts were amplified using specific primers and normalized to HPRT using SYBR Green (Qiagen), and, if needed, expressed relative to control-unstimulated cells. The following primers were used: […]

[3] = H9c2, sPDNF 1 μg/ml, time course

B1: sPDNF: N-terminal short-form of T cruzi PDNF that contains Trk-binding sites, recombinant; amino acids 1-588 of SEQ ID NO: 2; JR-100 is the commercial name (protein, listed as Trypanosoma cruzi)
chain: MGKTVVVASRMFWLMFFVPLLLAICPSEPAYALAPGSSRVELFKRKNSTVPFEDKAGKVTERVVHSFRLPALVNVDGVMVAIADARYDTSNDNSLIDTVAKYSVDDGETWETQIAIKNSRVSSVSRVVDPTVIVKGNKLYVLVGSYYSSRSYWSSHGDARDWDILLAVGEVTKSTAGGKITASIKWGSPVSLKKFFPAEMEGMHTNQFLGGAGVAIVASNGNLVYPVQVTNKKKQVFSKIFYSEDDGKTWKFGKGRSDFGCSEPVALEWEGKLIINTRVDWKRRLVYESSDMEKPWVEAVGTVSRVWGPSPKSNQPGSQSSFTAVTIEGMRVMLFTHPLNFKGRWLRDRLNLWLTDNQRIYNVGQVSIGDENSAYSSVLYKDDKLYCLHEINTDEVYSLVFARLVGELRIIKSVLRSWKNWDSHLSSICTPADPAASSSESGCGPAVTTVGLVGFLSGNASQNVWEDAYRCVNASTANAERVRNGLKFAGVGGGALWPVSQQGQNQRYRFANHAFTLVASVTIHEAPRAASPLLGASLDSSGGKKLLGLSYDEKHQWQPIYGSTPVTPTGSWETGKRYHLVLTMANKI
**Q.** What does the source list for B1?
**A.** expression of COX-2 (IL1-Ra, TSG-6 and COX-2): increased expression; expression of IL1-Ra (IL1-Ra, TSG-6 and COX-2): increased expression; expression of TSG-6 (IL1-Ra, TSG-6 and COX-2): increased expression; secretion of IL-6 (H9c2 cardiomyocytes [1]): did not alter; secretion of macrophage inflammatory protein-2a/MIP-2a/CXCL2 (H9c2 cardiomyocytes [1]): did not alter; secretion of MCP-1 (H9c2 cardiomyocytes [1]; dose-dependently): dramatically increased; FKN mRNA (H9c2 cardiomyocytes [2]; H9c2, 3 hr, dose-dependent): increase; MCP-1 mRNA (H9c2 cardiomyocytes [2]; H9c2, 3 hr, dose-dependent): increase; time at which MCP-1 transcript dropped to levels similar to unstimulated cells (H9c2 cardiomyocytes [2]; [3]): 8 h; time of maximal MCP-1 transcript increase after sPDNF stimulation (H9c2 cardiomyocytes [2]; [3]): 3 h
